Source: paper PMC9098913, “In vitro reconstitution of Escherichia coli divisome activation” (Nature Communications, 2022)
Values joined by “and” are separate entries in the source; they are usually repeats but may differ in a detail not shown here. Identical values can stand only once. Like-named read-outs stand apart in the source and are kept apart here.

Experiments:
[1] = system: FtsA/Z co-filaments; format: biochemical, E. coli; conditions: Fig. 2g, mean
Protocol: By fitting an exponential function to the increase of the PCC with time, we were able to extract the corresponding recruitment rate (Fig. 2f, g).
Subsequently, the chamber was washed 6x with reaction buffer, to remove bulk peptide. To visualize colocalization with either FtsZ or FtsA, either a mix of FtsA and Alexa488-FtsZ or Cy3-FtsA and FtsZ was added. […] The time-lapse videos were recorded for 10 min after the addition, with one frame per 2 s.

[2] = Single-molecule diffusion coefficient of FtsA on the membrane; conditions: for Diffusion Coefficient: single-particle tracking, n = 3
Protocol: First, we studied the behaviour of single FtsA proteins on the membrane surface.
After 5 min of incubation, single molecule time lapses were acquired every 125, 250, 500, and 1000 and 2000 ms, with an exposure time of 50 ms. Subsequently, the bulk concentration of FtsA was increased to 0.2/0.4/0.8 µM and time lapses were repeated as described above.
Single molecules of FtsA or FtsZ were tracked using the TrackMate plugin from ImageJ[43]. To obtain the residence time of FtsZ and FtsA, we performed a residence time analysis as described before[40],[47]. Shortly, single molecules were imaged at different acquisition rates (0.1–2 s) and the lifetime of the molecules was extracted from each data set. To account for photobleaching effect, the obtained lifetimes were plotted against the acquisition rate. […] Furthermore, we extracted the diffusion coefficient of FtsA single molecules at increasing concentrations. For this, we filtered the obtained data, by considering only trajectories which are present on the membrane for more than 0.4 s. […] Subsequently, the diffusion coefficient of FtsA molecules was estimated by fitting an MSD curve to each individual trajectory.

[3] = system: FtsZ; conditions: for PCCdiff FtsA/FtsZ: 1.25 µM FtsZ, mean ± s.d.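 On FtsZ autocorrelation T: FtsZ filament patterns imaged by time-lapse TIRF microscopy, one frame per 2 s, with ATP and GTP, Pearson correlation of first frame versus later frames, monoexponential fit, slower decay means persistent structures.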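 On FtsZ autocorrelation: FtsZ filament patterns imaged by time-lapse TIRF microscopy, one frame per 2 s, with ATP and GTP, Pearson correlation of first frame versus later frames, monoexponential fit, slower decay means persistent structures.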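 On PCC FtsA/FtsZ, mean of experiment (head 'Fig.1e PCC'; n and values fit Fig. 1f PCCdiff): pearson correlation of FtsA and FtsZ channels in dual-colour TIRF movies after subtracting consecutive frames to isolate growing filament ends, one frame per 2 s, ATP and GTP present.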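 On PCCdiff FtsA/FtsZ: pearson correlation of FtsA and FtsZ channels in dual-colour TIRF movies after subtracting consecutive frames to isolate growing filament ends, one frame per 2 s, ATP and GTP present.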
Source text: For this aim, we prepared differential time lapse movies[24], where we subtract the intensities of consecutive frames to selectively visualize the growing ends of filament bundles (Fig. 1d). We then calculated the Pearson correlation coefficient between the two channels of the differential movies (PCCdiff), which quantifies the covariation of the fluorescence signals for FtsA and FtsZ at the growing end of a filament bundle with a time resolution of the acquisition rate[4],[23],[24].
(§1) Additionally, the reaction chamber contained 4 mM ATP and 4 mM GTP, as well as a scavenging system to minimize photobleaching effects: 30 mM d-glucose, 0.050 mg ml^−1 Glucose Oxidase, 0.016 mg ml^−1 Catalase, 1 mM DTT and 1 mM Trolox. Prior addition of all components a corresponding buffer volume was removed from the chamber to obtain a total reaction volume of 100 µl. The dynamic protein pattern was monitored by time-lapse TIRF microscopy at one frame per 2 s and 50 ms exposure time.
Treadmilling dynamics, were quantified using an automated image analysis protocol previously developed by our group[24]. To visualize colocalization of the co-treadmilling FtsZ & FtsA filaments, we used dual-colour videos obtained at an acquisition rate of one frame per 2 s. The two channels were aligned using FIJI’s 3TP align plugin. Both channels were then subjected to the image subtraction protocol and colocalization was measured as described above.

[4] = system: FtsZ; conditions: for FtsZ autocorrelation T: mean; for Autocorrelation Decay Tau: Fig. S2i, + FtsN;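 on FtsZ autocorrelation T: FtsZ filament patterns imaged by time-lapse TIRF microscopy, one frame per 2 s, with ATP and GTP, Pearson correlation of first frame versus later frames, monoexponential fit, slower decay means persistent structures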;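 on FtsZ autocorrelation: FtsZ filament patterns imaged by time-lapse TIRF microscopy, one frame per 2 s, with ATP and GTP, Pearson correlation of first frame versus later frames, monoexponential fit, slower decay means persistent structures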;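 on PCC FtsA/FtsZ, mean of experiment (head 'Fig.1e PCC'; n and values fit Fig. 1f PCCdiff): pearson correlation of FtsA and FtsZ channels in dual-colour TIRF movies after subtracting consecutive frames to isolate growing filament ends, one frame per 2 s, ATP and GTP present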;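 on PCCdiff FtsA/FtsZ: pearson correlation of FtsA and FtsZ channels in dual-colour TIRF movies after subtracting consecutive frames to isolate growing filament ends, one frame per 2 s, ATP and GTP present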
Protocol: as §1
To measure reorganization dynamics of FtsZ filaments, we used a temporal correlation analysis based on the Image CorrelationJ 1o plugin. We quantified the PCC between the first frame to subsequent frames with increasing time lag (∆t). The decrease in the PCC was plotted against ∆t to obtain autocorrelation curves. Slower decay indicates more persistent structures. The rates of decay were extracted by fitting monoexponential decay to the autocorrelation curves y=a⋅e^−b⋅t+k , where a is the starting point, b is the decay rate and k is the final offset. The half time of the monoexponential decay was calculated via the decay rate.

B1: FtsA R286W (protein)
chain: MIKATDRKLVVGLEIGTAKVAALVGEVLPDGMVNIIGVGSCPSRGMDKGGVNDLESVVKCVQRAIDQAELMADCQISSVYLALSGKHISCQNEIGMVPISEEEVTQEDVENVVHTAKSVRVRDEHRVLHVIPQEYAIDYQEGIKNPVGLSGVRMQAKVHLITCHNDMAKNIVKAVERCGLKVDQLIFAGLASSYSVLTEDERELGVCVVDIGGGTMDIAVYTGGALRHTKVIPYAGNVVTSDIAYAFGTPPSDAEAIKVRHGCALGSIVGKDESVEVPSVGGRPPWSLQRQTLAEVIEPRYTELLNLVNEEILQLQEKLRQQGVKHHLAAGIVLTGGAAQIEGLAACAQRVFHTQVRIGAPLNITGLTDYAQEPYYSTAVGLLHYGKESHLNGEAEVEKRVTASVGSWIKRLNSWLRKEF
modifications: Cy3 or Cy5 at the N-terminus in the labelled form (labelled CLEPTGG peptide conjugated to the 5xGly tag by sortagging); unlabelled protein also used; left off: TwinStrep-SUMO, N-terminal, cleaved | 5x
Recruitment rate of FtsN to FtsZ filaments ([1]; Concentration 0.10 µM): 2.71 | Recruitment rate of FtsN to FtsZ filaments ([1]; Concentration 0.20 µM): 3.32 | Recruitment rate of FtsN to FtsZ filaments ([1]; Concentration 0.40 µM): 2.53 | Recruitment rate of FtsN to FtsZ filaments ([1]; Concentration 0.80 µM): 2.36 | Single Molecule Diffusion Constant ([2]; 0.1 µM FtsA, Exp. 1): 0.4979 µm2/s | Single Molecule Diffusion Constant ([2]; 0.1µM FtsA, Exp. 2): 0.3931 µm2/s | Single Molecule Diffusion Constant ([2]; 0.1 µM FtsA, Exp. 3): 0.3496 µm2/s | Diffusion Coefficient ([2]; 0.1 µM FtsA): 0.42 ± 0.06 µm^2/s | Single Molecule Diffusion Constant ([2]; 0.2 µM FtsA, Exp. 1): 0.1893 µm2/s | Single Molecule Diffusion Constant ([2]; 0.2µM FtsA, Exp. 2): 0.1662 µm2/s | Single Molecule Diffusion Constant ([2]; 0.2 µM FtsA, Exp. 3): 0.2033 µm2/s | Single Molecule Diffusion Constant ([2]; 0.4 µM FtsA, Exp. 1): 0.1363 µm2/s | Single Molecule Diffusion Constant ([2]; 0.4µM FtsA, Exp. 2): 0.0718 µm2/s | Single Molecule Diffusion Constant ([2]; 0.4 µM FtsA, Exp. 3): 0.1951 µm2/s | Single Molecule Diffusion Constant ([2]; 0.8 µM FtsA, Exp. 1): 0.0600 µm2/s | Single Molecule Diffusion Constant ([2]; 0.8µM FtsA, Exp. 2): 0.0636 µm2/s | Single Molecule Diffusion Constant ([2]; 0.8 µM FtsA, Exp. 3): 0.0391 µm2/s | Single Molecule Diffusion Constant, mean ([2]; 0.8 µM FtsA, mean of Exp. 1-3, n = 3, Fig. 3b): 0.054 µm2/s and 0.0542 µm2/s | Diffusion Coefficient ([2]; 0.8 µM FtsA): 0.05 ± 0.01 µm^2/s | PCC FtsA/FtsZ, mean of experiment (head 'Fig.1e_PCC'; n and values fit Fig. 1f PCCdiff) ([3]; 0.1µM FtsAs, replicate column 1): 0.68 | PCC FtsA/FtsZ, mean of experiment (head 'Fig.1e_PCC'; n and values fit Fig. 1f PCCdiff) ([3]; 0.1µM FtsAs, replicate column 2): 0.67 | PCC FtsA/FtsZ, mean of experiment (head 'Fig.1e_PCC'; n and values fit Fig. 1f PCCdiff) ([3]; 0.1µM FtsAs, replicate column 3): 0.48 | PCC FtsA/FtsZ, mean of experiment (head 'Fig.1e_PCC'; n and values fit Fig. 1f PCCdiff) ([3]; 0.2µM FtsAs, replicate column 1): 0.74 | PCC FtsA/FtsZ, mean of experiment (head 'Fig.1e_PCC'; n and values fit Fig. 1f PCCdiff) ([3]; 0.2µM FtsAs, replicate column 2): 0.79 | PCC FtsA/FtsZ, mean of experiment (head 'Fig.1e_PCC'; n and values fit Fig. 1f PCCdiff) ([3]; 0.2µM FtsAs, replicate column 3): 0.75 | PCC FtsA/FtsZ, mean of experiment (head 'Fig.1e_PCC'; n and values fit Fig. 1f PCCdiff) ([3]; 0.2µM FtsAs, replicate column 4): 0.76 | PCC FtsA/FtsZ, mean of experiment (head 'Fig.1e_PCC'; n and values fit Fig. 1f PCCdiff) ([3]; 0.2µM FtsAs, replicate column 5): 0.68 | PCCdiff FtsA/FtsZ ([3]; 0.4 µM FtsA, p-value 1.82 × 10^−4): 0.76 ± 0.04 | PCC FtsA/FtsZ, mean of experiment (head 'Fig.1e_PCC'; n and values fit Fig. 1f PCCdiff) ([3]; 0.4µM FtsAs, replicate column 1): 0.72 | PCC FtsA/FtsZ, mean of experiment (head 'Fig.1e_PCC'; n and values fit Fig. 1f PCCdiff) ([3]; 0.4µM FtsAs, replicate column 2): 0.78 | PCC FtsA/FtsZ, mean of experiment (head 'Fig.1e_PCC'; n and values fit Fig. 1f PCCdiff) ([3]; 0.4µM FtsAs, replicate column 3): 0.82 | PCC FtsA/FtsZ, mean of experiment (head 'Fig.1e_PCC'; n and values fit Fig. 1f PCCdiff) ([3]; 0.4µM FtsAs, replicate column 4): 0.72 | PCCdiff FtsA/FtsZ ([3]; 0.8 µM FtsA R286W): 0.76 ± 0.05 | PCC FtsA/FtsZ, mean of experiment (head 'Fig.1e_PCC'; n and values fit Fig. 1f PCCdiff) ([3]; 0.8µM FtsAs, replicate column 1): 0.79 | PCC FtsA/FtsZ, mean of experiment (head 'Fig.1e_PCC'; n and values fit Fig. 1f PCCdiff) ([3]; 0.8µM FtsAs, replicate column 2): 0.82 | PCC FtsA/FtsZ, mean of experiment (head 'Fig.1e_PCC'; n and values fit Fig. 1f PCCdiff) ([3]; 0.8µM FtsAs, replicate column 3): 0.76 | PCC FtsA/FtsZ, mean of experiment (head 'Fig.1e_PCC'; n and values fit Fig. 1f PCCdiff) ([3]; 0.8µM FtsAs, replicate column 4): 0.69 | FtsZ autocorrelation ([4]; 0.1 µM FtsA, Exp. 1): 160.44 s | FtsZ autocorrelation ([4]; 0.1µM FtsA, Exp. 2): 218.46 s | FtsZ autocorrelation T ([4]; 0.10 µM FtsA): 194.36 s | FtsZ autocorrelation ([4]; 0.2 µM FtsA, Exp. 1): 153.77 s | FtsZ autocorrelation ([4]; 0.2µM FtsA, Exp. 2): 78.66 s | FtsZ autocorrelation T ([4]; 0.20 µM FtsA): 136.59 s | FtsZ autocorrelation ([4]; 0.4 µM FtsA, Exp. 1): 331.53 s | FtsZ autocorrelation ([4]; 0.4µM FtsA, Exp. 2): 146.15 s | FtsZ autocorrelation T ([4]; 0.40 µM FtsA): 186.04 s | FtsZ autocorrelation ([4]; 0.8 µM FtsA, Exp. 1): 113.86 s | FtsZ autocorrelation ([4]; 0.8µM FtsA, Exp. 2): 144.33 s | Autocorrelation Decay Tau ([4]; replicate 1): 4.55 min | Autocorrelation Decay Tau ([4]; replicate 2): 8.41 min | Autocorrelation Decay Tau ([4]; replicate 3): 7.40 min
